B1: SMOC2 (parent)
chain: QKPLCASDGRTFLSRCEFQRAKCK
B2: SFRS1 (parent)
chain: RDIDLKNRRGGPPFAFVEFEDPRD

Variants of: B1
Experiment: protein stability index of a GFP-peptide fusion (GPS, HEK-293T) (PSI 1-6); higher = more stable
Details: c terminus: a fixed tail appended
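Note: lentivirally expressed fusions sorted by FACS into six bins by GFP to DsRed ratio, PSI derived from sequencing read proportions per bin multiplied by bin number.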

Protein stability index of substitutions, site by site:
S7: Y 2.15 | V 2.59 | H 2.57 | A 2.33 | C 1.82 | R 2.38 | L 2.82 | Q 2 | T 2.5 | I 2.31 | P 3.45 | E 2.86 | W 2.85 | N 3.76 | K 3.32 | M 1.67 | F 2.8 | D 3.36
A6: T 2.42 | F 1.89 | C 2.57 | N 2.63 | K 2.82 | V 3.69 | H 3.61 | Q 3.21 | D 2.9 | G 2.38 | Y 2.71 | P 3.32 | L 2.47 | S 3.44 | I 2.74 | W 2.69 | R 2.74 | M 2.48
L4: D 3.83 | K 2.52 | S 3.35 | E 3.77 | I 2.31 | Q 2.81 | F 2.18 | M 2.29 | H 2.59 | W 2.51 | V 2.52 | N 3.08 | P 2.79 | T 2.65 | R 3.25 | Y 1.99
K2: I 3.51 | C 2.03 | F 2.75 | S 2.93 | L 2.99 | D 3.62 | P 3.18 | W 2.48 | E 3.78 | T 3.18 | A 2.61 | R 3.47 | M 3.87 | V 2.97 | G 3.16 | Y 2.48
C5: V 3.16 | T 3.41 | K 2.19 | W 2.31 | S 2.91 | G 2.44 | I 1.74 | P 2.94 | Q 2.88 | N 4.28 | R 2.5 | A 3.31 | F 2.01 | D 3.29 | H 2.7 | Y 2.38
Q1: S 2.68 | K 3.41 | E 3.39 | H 2.48 | F 3.05 | V 2.58 | M 2.78 | L 2.17 | A 2.81 | R 2.76 | G 3.23 | N 3.36 | D 2.68 | P 2.64 | C 1.87 | T 3.41 | I 2.19 | Y 2.97
D8: L 1.97 | F 1.94 | R 3.23 | A 2.37 | E 3.66 | I 2.35 | K 2.56 | Y 2.67 | V 2.76 | H 2.52 | N 2.77 | P 2.75 | C 1.63 | M 2.63 | T 2.9 | Q 1.93
R10: A 3.24
P3: R 3.19 | M 3.12 | E 4.05 | V 2.31 | C 2.39 | I 2.16 | G 2.5 | W 1.53 | H 2.17 | K 2.42 | L 2.67 | A 2.36 | N 2.2 | T 2.81 | F 1.89 | Q 2.28 | Y 2.83
G9: E 3.48 | I 1.9 | V 2.93 | Q 2.64 | L 2.68 | P 2.45 | T 2.67 | M 3.19 | H 2.75 | S 3.42 | F 2.2 | K 2.14 | N 2.82 | Y 1.9 | C 2.35 | W 2.82 | D 3.99 | R 2.94 | A 2.58

Variants of: B2
Experiment: as above
Details: c terminus: a fixed tail appended

Protein stability index, by site and new letter:
A15: S 4.22 | V 3.58 | Q 4.79 | P 4.31 | W 3.7 | R 2.25 | Y 3.56 | T 4.54
D21: A 3.1 | T 3.72 | P 3.45 | R 3.08 | N 3.38 | W 2.95 | Q 3.54 | G 2.55 | I 2.63 | S 3.26 | F 2.65 | Y 3.18 | E 3.99 | K 3.73 | L 2.51 | H 3.34 | C 2.73 | M 2.8 | V 3.02
F19: H 3.95 | M 3.19 | E 4.77 | Q 3.94 | T 3.47 | N 3.38 | C 3.05 | P 3.85 | D 3.69 | V 3.03 | K 3.18 | G 4.03 | R 3.38 | L 4.22 | A 2.95 | Y 4.11 | I 3.27 | S 3.19 | W 3.39
E18: I 2.24 | W 1.88 | Q 2.53 | G 2.77 | C 2.4 | S 2 | N 3.24 | K 2.64 | Y 2.3 | R 3.13 | M 2.35 | A 2.18 | T 2.74 | F 1.81 | P 2.99 | L 1.9 | V 2.2 | H 2.51 | D 3.22
D24: L 2.31 | I 2.72 | T 3.13 | Q 3.39 | V 3.11 | S 3.02 | Y 2.5 | W 1.33 | C 2.46 | P 3.42 | N 2.9 | M 2.64 | H 3.59 | R 3.19 | E 4.76 | F 2.15 | A 3.74 | G 3.47 | K 3.65
E20: I 2.56 | H 3.21 | F 2.67 | L 2.71 | D 3.94 | A 3.06 | T 3.3 | Q 2.91 | G 3.14 | Y 2.46 | N 3.68 | W 2.72 | M 2.57 | V 3.02 | P 3.66 | K 3.52 | S 2.89 | R 2.91 | C 2.67
F16: E 5.2 | Y 4.26 | K 4.89 | H 4.77 | W 3.97 | N 4.91 | A 5.03 | S 4.7 | L 4.81 | P 5.26 | V 4.62 | M 4.88 | Q 5 | T 4.96 | C 4.45 | G 5.32 | R 5 | D 5.04 | I 4.36
R23: I 3.67 | C 3.67 | W 3.62 | L 3.72 | T 4.33 | G 3.84 | Y 3.19 | S 4.07 | Q 4.15 | E 4.1 | V 3.45 | M 3.79 | A 3.88 | K 4.14 | D 4.18 | H 4.17 | P 4.53 | F 3.37 | N 4.24
V17: Y 4.42 | C 4.2 | G 4.43 | L 4.13 | S 4.16 | E 4.95 | Q 4.61 | M 4.24 | N 4.62 | R 4.33 | P 4.63 | F 4.64 | A 4.35 | H 4.38 | D 4.77 | K 4.62 | T 4.75 | W 3.92 | I 3.97
P22: S 3.93 | W 3.55 | A 3.93 | D 4.5 | Y 3.58 | M 3.76 | C 3.8 | V 3.76 | K 4.09 | L 3.19 | H 3.63 | Q 4.44 | E 4.43 | F 2.9 | G 4.03 | I 3.94 | R 3.62 | T 3.99 | N 4.15

Reference: the supplement of paper PMC10567573
